Biological target: T1, PED/PEA-15 over-expressed in transgenic Tg_(Ped/pea-15) mice (UniProt Q15121 1-130)
T1 construct: PED/PEA-15 expressed from the transgene of Tg_(Ped/pea-15) mice; The precipitate from transgenic muscle holds the transgene's product together with the endogenous mouse protein; source: transgenic mice with ubiquitous over-expression of Ped/pea-15, tibialis skeletal muscle lysate
Assay: co-IP; tibialis skeletal muscle lysate (0.5-1 mg) of Wt and Tg_(Ped/pea-15) mice, precleared with pre-immune serum, anti-PED/PEA-15 antibody overnight at 4°C, protein A sepharose, blot with anti-PLD1
Settings: partners not purified

T1 sequence (Q15121 whole entry): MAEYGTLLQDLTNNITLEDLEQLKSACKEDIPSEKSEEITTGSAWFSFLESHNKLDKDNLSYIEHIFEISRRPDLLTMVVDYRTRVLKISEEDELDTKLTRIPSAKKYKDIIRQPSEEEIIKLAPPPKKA

B1: Phospholipase D1 (PLD1), endogenous in mouse skeletal muscle (enzyme, UniProt Q9Z280 1-1074, looked up)
chain: MSLKSETRVNTSTLQKIAADMSNLIENLDTRELHFEGEEVEYDASPGDPKAQEGCIPFSSIYNTQGFKEPNIQTYLSGCPIKAQVLEVERFTSTSRVPSINLYTIELTHGEFTWQVKRKFKHFQEFHRELLKYKAFIRIPIPTKRHTFRRQNVKEEPREMPSLPRSSENAIQEEQFFGRRKQLEDYLTKILKMPMYRNYHATTEFLDVSQLSFIHDLGPKGLEGMIMKRSGGHRIPGVNCCGHGRACYRWSKRWLIVKDSFLLYMKPDSGAIAFVLLVDKEFRVKVGRKETETKYGLRIDNLSRTLILKCNSYRHARWWGGAIEEFIRKHGADFLKDHRFGSYAALHENTLAKWYVNAKGYFEDIANAMEEASEEIFITDWWLSPEIFLKRPVVEGNRWRLDCILKRKAQQGVRIFIMLYKEVELALGINSEYSKRTLMRLHPNIKVMRHPDHVSSSVYLWAHHEKLVIIDQSVAFVGGIDLAYGRWDDNEHRLTDVGSVKRVTSGLSLGSLTAASVESMESLSLKDKHEFHKKEPISKIVDETDMKLKGIGKSRKFSKFSLYRQLHRHHLHNADSISSIDSTSSYFSHCRSHQNLIHGLKPHLKLFHPSSESEQGLTRHSTDTGSIRSVQTGVGELHGETRFWHGKDYCNFVFKDWVQLDKPFADFIDRYSTPRMPWHDIGSVVHGKAARDVARHFIQRWNFTKIMKPKYRSLSYPFLLPKSQATAHELRYQVPGAVPAKVQLLRSAADWSAGIKHHEESIHAAYIHVIENSKHYIYIENQFFISCADDKVVFNKVGDRIAQRILKAHREGQRYRVYIVIPLLPGFEGDISTGGGNALQAIMHFNYRTMCRGESSILEQLKPELGNKWINYISFCGLRTHAELEGNLVTELIYVHSKLLIADDNTVIIGSANINDRSMLGKRDSEMAVIVQDTETVPSVMDGKEYQAGRFARDLRLECFRLVLGYLSDPSEDLQDPVSDKFFKEIWVSTAARNATIYDKVFRCLPNDEVHNLIQLRDFINKPILAKEDALRAEEELRKIRGFLVQFPLYFLSEENLLPSVGTKEAIVPMEVWT
notes: Phospholipase D1, endogenous protein of mouse skeletal muscle; Detected by blot with an anti-PLD1 antibody in the anti-PED/PEA-15 precipitate; source: endogenous, tibialis skeletal muscle lysate of Wt and Tg_(Ped/pea-15) mice
In the case of B1, the “fold increase of the co-precipitated interaction against Wt mice” value is reported as 4 fold.

— article PMC3621763, “Adenoviral Gene Transfer of PLD1-D4 Enhances Insulin Sensitivity in Mice by Disrupting Phospholipase D1 Interaction with PED/PEA-15” (PLoS ONE, 2013)
